# Experimental data published in paper PMC2819980.
# Assays:
# [1] = tested on: Nc1ccn([C@@H]2O[C@H](COP(=O)(O)OP(=O)(O)CCCNO)[C@@H](O)[C@H]2O)c(=O)n1; assay: steady-state kinetics; format: biochemical, Streptomyces rubellomurinus
# [2] = tested on: NCCCP(=O)(O)OP(=O)(O)OC[C@H]1O[C@@H](n2ccc(N)nc2=O)[C@H](O)[C@@H]1O; assay: steady-state kinetics; format: biochemical, Streptomyces rubellomurinus
substance,measurement,setting,value
FrbF (Streptomyces rubellomurinus),Km,[1],52.3 ± 3.0 µM
same,kcat,[1],0.034 ± 0.00717 s⁻¹
same,kcat/Km,[1],650 M⁻¹ s⁻¹
same,Km,[2],35.2 ± 3.2 µM
same,kcat,[2],0.0577 ± 0.00267 s⁻¹
same,kcat/Km,[2],1630 M⁻¹ s⁻¹
